Assay [1] has as its target T1, 1-27 CD3-Fc (N-terminal amino acids 1-27 of the mature human CD3 epsilon chain fused to the hinge and Fc … (human)).
T1 construct: The synthetic gene also codes a 19 amino acid immunoglobulin leader; also called 27 aa huCD3E; human CD3 epsilon (aa 1-27)- Fc fusion protein
Description: ELISA, captured 1-27 CD3-Fc, periplasmic scFv.

For assay [2], the target named is T2, 1-27 CD3-EpCAM, swine 27 mer (Sus scrofa CD3 epsilon 1-27, Flag tag, cynomolgus EpCAM) (Sus scrofa; cynomolgus monkey).
T2 construct: Negative control, on transfected cells
T2 chain: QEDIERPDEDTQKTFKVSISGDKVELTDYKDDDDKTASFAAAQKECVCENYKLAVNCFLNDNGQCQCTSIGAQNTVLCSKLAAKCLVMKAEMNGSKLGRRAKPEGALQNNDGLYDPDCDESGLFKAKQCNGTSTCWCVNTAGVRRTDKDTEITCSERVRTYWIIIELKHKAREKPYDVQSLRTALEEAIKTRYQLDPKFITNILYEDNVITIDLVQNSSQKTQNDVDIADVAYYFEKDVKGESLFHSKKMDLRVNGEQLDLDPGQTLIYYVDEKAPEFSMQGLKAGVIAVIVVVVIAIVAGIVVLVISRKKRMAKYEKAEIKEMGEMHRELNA
As to the kind of experiment: FACS on transfected 293-HEK cells.

Assay [3] deals with T3, 1-27 CD3-EpCAM, human 27 mer (N-terminal amino acids 1-27 of human CD3 epsilon, Flag tag, cynomolgus EpCAM) (human; cynomolgus monkey).
T3 chain: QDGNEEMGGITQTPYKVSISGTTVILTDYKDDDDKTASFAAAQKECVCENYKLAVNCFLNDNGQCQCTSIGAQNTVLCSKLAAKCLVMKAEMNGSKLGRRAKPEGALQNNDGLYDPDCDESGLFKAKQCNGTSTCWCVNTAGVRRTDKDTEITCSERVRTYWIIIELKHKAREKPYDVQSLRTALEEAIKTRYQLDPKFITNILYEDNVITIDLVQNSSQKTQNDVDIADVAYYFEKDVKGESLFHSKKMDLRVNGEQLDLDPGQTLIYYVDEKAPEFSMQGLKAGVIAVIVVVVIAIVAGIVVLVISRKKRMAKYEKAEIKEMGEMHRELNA
As to the kind of experiment: FACS, 293-HEK transfectant. (A flow cytometer gives signals particle by particle.)

Assay [4] has as its target T4, 1-27 CD3-EpCAM, squirrel monkey 27 mer (Saimiri sciureus CD3 epsilon 1-27, Flag tag, cynomolgus EpCAM) (Saimiri sciureus; cynomolgus monkey).
T4 construct: On transfected cells
T4 chain: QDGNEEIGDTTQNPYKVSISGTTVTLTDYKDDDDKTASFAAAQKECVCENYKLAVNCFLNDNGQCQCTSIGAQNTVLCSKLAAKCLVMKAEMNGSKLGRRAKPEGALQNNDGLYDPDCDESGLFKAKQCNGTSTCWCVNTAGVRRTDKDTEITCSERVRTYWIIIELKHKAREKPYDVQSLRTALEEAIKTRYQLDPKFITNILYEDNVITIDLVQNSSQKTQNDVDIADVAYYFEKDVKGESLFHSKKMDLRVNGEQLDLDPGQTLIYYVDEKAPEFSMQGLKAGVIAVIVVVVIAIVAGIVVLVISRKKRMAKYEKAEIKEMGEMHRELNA
As to the kind of experiment: FACS, 293-HEK transfectant.

The target in assay [5] is T1, 1-27 CD3-Fc (N-terminal amino acids …). Description: SPR (Biacore 2000), 1-27 CD3-Fc coupled to CM5 chip, Langmuir model. On the technique in general: In SPR one partner is held on a chip, and binding of the other changes the refractive index at the surface.
The target in assay [6] is T5, human CD3 (epsilon) on human T cells (HPB-ALL cell line, human PBMC) (human, UniProt P07766 23-207).
T5 construct: whole, on cells; also called native CD3
As to the kind of experiment: FACS, HPB-ALL.

Results on 5 molecules are retold here after patent publication EP3461842A1 (Amgen Research (Munich) GmbH, dated 2019).

T5 sequence (P07766 23-207): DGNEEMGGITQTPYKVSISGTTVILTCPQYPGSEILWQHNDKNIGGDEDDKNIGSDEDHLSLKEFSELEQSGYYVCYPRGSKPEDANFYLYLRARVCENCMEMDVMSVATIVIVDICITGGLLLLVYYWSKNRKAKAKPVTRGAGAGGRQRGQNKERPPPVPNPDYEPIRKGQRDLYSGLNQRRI

B1: A2J HLP single-chain antibody (scFv)
scFv: EVQLLESGGGLVQPGGSLKLSCAASGFTFNVYAMNWVRQAPGKGLEWVARIRSKYNNYATYYADSVKKRFTISRDDSKNTAYLQMNNLKTEDTAVYYCVRHGNFGNSYLSWWAYWGQGTLVTVSSGGGGSGGGGSGGGGSELVVTQEPSLTVSPGGTVTLTCRSSTGAVTSGYYPNWVQQKPGQAPRGLIGATDMRPSGTPARFSGSLLGGKAALTLSGVQPEDEAEYYCALWYSNRWVFGGGTKLTVL
notes: Crude periplasmic preparation, Flag and His6 tags
Regarding B1, the binding result in assay [1] is “binds”.

B2: E2M HLP single-chain antibody (scFv)
scFv: EVQLLESGGGLVQPGGSLKLSCAASGFTFNGYAMNWVRQAPGKGLEWVARIRSKYNNYATYYADSVKERFTISRDDSKNTAYLQMNNLKTEDTAVYYCVRHRNFGNSYLSWFAYWGQGTLVTVSSGGGGSGGGGSGGGGSELVVTQEPSLTVSPGGTVTLTCRSSTGAVTSGYYPNWVQQKPGQAPRGLIGATDMRPSGTPARFSGSLLGGKAALTLSGVQPEDEAEYYCALWYSNRWVFGGGTKLTVL
notes: as for B1
Turning to B2, the binding result in assay [1] is “binds”; in assay [2], “no binding”; in assay [3], “binds”; in assay [4], “binds”.

B3: EGFR-21-63 LH x A2J HLP (bispecific antibody)
chain: DIVLTQSPASLPVSLGQRATISCRASQSVSSSTYSYIHWYQQKPGQPPKLLITYASNLESGVPARFSGSGSGTDFTLDIHPVEEDDSSTYYCQHSWEIPFTFGSGTKLEIKGGGGSGGGGSGGGGSQVQLQQSGPDLVKPGASVKMSCKASGHTFTDCVIIWVKQRAGQGLEWIGQIYPGTGRSYYNEIFKGKATLTADKSSNTVHIQLSSLTSEDSAVYFCALSTLIHGTWFSYWGQGTLVTVSSGGGGSEVQLLESGGGLVQPGGSLKLSCAASGFTFNVYAMNWVRQAPGKGLEWVARIRSKYNNYATYYADSVKKRFTISRDDSKNTAYLQMNNLKTEDTAVYYCVRHGNFGNSYLSWWAYWGQGTLVTVSSGGGGSGGGGSGGGGSELVVTQEPSLTVSPGGTVTLTCRSSTGAVTSGYYPNWVQQKPGQAPRGLIGATDMRPSGTPARFSGSLLGGKAALTLSGVQPEDEAEYYCALWYSNRWVFGGGTKLTVL
notes: plus C-terminal His6 tag; also called EGFR LH x A2J HLP
Broadly, the Kd is a measure of binding affinity in units of concentration. With B3, in assay [5], the affinity, expressed as Kd, was 249 nM.

B4: EGFR-21-63 LH x E2M HLP (bispecific antibody)
chain: DIVLTQSPASLPVSLGQRATISCRASQSVSSSTYSYIHWYQQKPGQPPKLLITYASNLESGVPARFSGSGSGTDFTLDIHPVEEDDSSTYYCQHSWEIPFTFGSGTKLEIKGGGGSGGGGSGGGGSQVQLQQSGPDLVKPGASVKMSCKASGHTFTDCVIIWVKQRAGQGLEWIGQIYPGTGRSYYNEIFKGKATLTADKSSNTVHIQLSSLTSEDSAVYFCALSTLIHGTWFSYWGQGTLVTVSSGGGGSEVQLLESGGGLVQPGGSLKLSCAASGFTFNGYAMNWVRQAPGKGLEWVARIRSKYNNYATYYADSVKERFTISRDDSKNTAYLQMNNLKTEDTAVYYCVRHRNFGNSYLSWFAYWGQGTLVTVSSGGGGSGGGGSGGGGSELVVTQEPSLTVSPGGTVTLTCRSSTGAVTSGYYPNWVQQKPGQAPRGLIGATDMRPSGTPARFSGSLLGGKAALTLSGVQPEDEAEYYCALWYSNRWVFGGGTKLTVL
notes: plus C-terminal His6 tag; also called EGFR LH x E2M HLP
In assay [5], B4 had a Kd of 2460 nM.

B5: MCSP-G4 HLP x E2M HLP (bispecific antibody)
chain: QVQLVQSGAEVKRPGASMKVSCKASGYTFTNYYIHWVRQAPGQGLEWMGWINPNSGATNYAQKFQGRVTMTRDTSTSTVYMELSSLRSEDTAVYYCAKSWVSWFASWGQGTLVTVSSGGGGSGGGGSGGGGSELVMTQSPDSLAVSLGERATINCKSSQSVLNSSNNRNYLAWYQQKPGQPPKLLIYWASTRESGVPDRFSGSGSGTDFTLTISGLQAEDVAVYYCQQHYSTPFTFGPGTKVDIKSGGGGSEVQLLESGGGLVQPGGSLKLSCAASGFTFNGYAMNWVRQAPGKGLEWVARIRSKYNNYATYYADSVKERFTISRDDSKNTAYLQMNNLKTEDTAVYYCVRHRNFGNSYLSWFAYWGQGTLVTVSSGGGGSGGGGSGGGGSELVVTQEPSLTVSPGGTVTLTCRSSTGAVTSGYYPNWVQQKPGQAPRGLIGATDMRPSGTPARFSGSLLGGKAALTLSGVQPEDEAEYYCALWYSNRWVFGGGTKLTVL
notes: plus C-terminal His6 tag
Consider B5, for which the binding result in assay [6] was “binds”.
